Holding throughout (experiment): purified protein
In series [1] the test system is CC(=O)[C@H]1CC[C@H]2[C@@H]3CCC4=CC(=O)CC[C@]4(C)[C@H]3CC[C@]12C. The format is biochemical, Digitalis lanata. The following applies: 250 μM NADPH, 50 mM HEPES/NaOH pH 7.0, 100 mM NaCl, 25 °C, 1.5% ethanol.
For series [2] the test system is unchanged. In kind it is biochemical, Digitalis purpurea. The following applies: 250 μM NADPH, 50 mM HEPES/NaOH pH 7.0, 100 mM NaCl, 25 °C, 1.5% ethanol.
The next series deals with C/C(C=O)=C\CC/C(C)=C/C=O. The note with it: 250 μM NADPH, 50 mM HEPES/NaOH pH 7.0, 100 mM NaCl, 25 °C, 0.1% tetrahydrofuran.
Series [3] concerns CC(=O)[C@H]1CC[C@H]2[C@@H]3CCC4=CC(=O)CC[C@]4(C)[C@H]3CC[C@]12C. The note with it: 250 μM NADPH, 50 mM HEPES/NaOH pH 7.0, 100 mM NaCl, 25 °C, 1.5% ethanol.

As to “Digitalis lanata 1 (PRISE1, progesterone 5β-reductase) (Digitalis lanata)”, the Michaelis-Menten constant (Km) in series [1] turned out to be 6.5 ± 2.0 µM.

For the substance “Digitalis purpurea 2 (Digitalis purpurea)”, in series [2], the Km worked out at 6.3 ± 1.9 µM.

Regarding “Physcomitrella patens PRISE (Physcomitrium patens)”, in the series on C/C(C=O)=C\CC/C(C)=C/C=O, the Km was 31.3 ± 8.6 µM, the kcat worked out at 0.066 ± 0.005 s⁻¹ and the specificity constant (kcat/Km) is 2100 M⁻¹ s⁻¹. Also, the Km in series [3] worked out at 9.5 ± 3.1 µM.

Broadly, the Km is the substrate concentration at which the rate is half of its maximum. Usually kcat stands for the number of substrate molecules converted per active site and unit of time at saturation. As usually defined, the kcat/Km is the turnover number divided by the Michaelis constant.

The values above are taken from publication PMC7467569, “The Progesterone 5β-Reductase/Iridoid Synthase Family: A Catalytic Reservoir for Specialized Metabolism across Land Plants” (ACS Chemical Biology, 2020).
